Results published in article PMC8748511 (Nature Communications, 2022).
Positions count from the first letter of the chain named.

Target: SARS-CoV-2 spike receptor binding domain (RBD) (SARS-CoV-2, founder (Wuhan-Hu-1) …, UniProt P0DTC2, amine-PEG3-biotin attached with sortase A at the C-terminal sortase motif (for SPR))

B1: H5 (VHH)
VHH: QVQLVESGGGLVQPGGSLRLSCAASGVTLDDYAIGWFRQAPGKEREGVSFITSSDGSTFYVDSVKGRFTIARDNAKNTVYLQMNALTPEDTAVYYCAVGPSFSSTGSTYYRSELPWDYDYWGQGTQVTVSS
B1: binds.

B2: H6 (VHH)
VHH: B1 VHH with V27F, F59Y, A71S, A85S, S104Y, E113V
B2: binds.

B3: H7 (VHH)
VHH: B1 VHH with V27F, F59Y, D62A, A71S, A85D, S104Y
B3: binds.

B4: H8 (VHH)
VHH: B1 VHH with V27F, V48I, F59Y, A71S, A85D, S104Y
B4: binds.

B5: H9 (VHH)
VHH: B1 VHH with V27F, G35A, F59Y, A71S, A85D, S104Y
B5: binds.

B6: H10 (VHH)
VHH: B1 VHH with V27F, F59Y, T69A, A71S, A85S, S104R, E113V
B6: binds.

B7: H11 (VHH)
VHH: B1 VHH with V27L, F59Y, A71S, A85S, S104Y, E113T
B7: binds.
